Reference: US20180291110A1 (Hoffmann-La Roche, published 2018)
Residue numbers refer to the chain shown, from its start. Numbers in names are those of the source.

B1: Pertuzumab HC x Pertuzumab (Tras.L3) G32A LC (antibody, V domains shown)
VH: EVQLVESGGGLVQPGGSLRLSCAASGFTFTDYTMDWVRQAPGKGLEWVADVNPNSGGSIYNQRFKGRFTLSVDRSKNTLYLQMNSLRAEDTAVYYCARNLGPSFYFDYWGQGTLVTVSS
VL: DIQMTQSPSSLSASVGDRVTITCKASQDVSIAVAWYQQKPGKAPKLLIYSASYRYTGVPSRFSGSGSGTDFTLTISSLQPEDFATYYCQQHYTTPPTFGQGTKVEIK
B2: Pertuzumab HC x Pertuzumab (Tras.L3) G66R LC (antibody, V domains shown)
VH: B1 VH
VL: B1 VL with A32G, G66R
B3: Pertuzumab HC x Pertuzumab (Tras.L3) I31T LC (antibody, V domains shown)
VH: B1 VH
VL: B1 VL with I31T, A32G
B4: Pertuzumab HC x Pertuzumab (Tras.L3) I31V LC (antibody, V domains shown)
VH: B1 VH
VL: B1 VL with I31V, A32G
B5: Pertuzumab HC x Pertuzumab (Tras.L3) K24R LC (antibody, V domains shown)
VH: B1 VH
VL: B1 VL with K24R, A32G
B6: Pertuzumab HC x Pertuzumab (Tras.L3) P96Y LC (antibody, V domains shown)
VH: B1 VH
VL: B1 VL with A32G, P96Y
B7: Pertuzumab HC x Pertuzumab (Tras.L3) R54L LC (antibody, V domains shown)
VH: B1 VH
VL: B1 VL with A32G, R54L
B8: Pertuzumab HC x Pertuzumab (Tras.L3) S30N LC (antibody, V domains shown)
VH: B1 VH
VL: B1 VL with S30N, A32G
B9: Pertuzumab HC x Pertuzumab (Tras.L3) T56S LC (antibody, V domains shown)
VH: B1 VH
VL: B1 VL with A32G, T56S
B10: Pertuzumab HC x Pertuzumab (Tras.L3) T94Y LC (antibody, V domains shown)
VH: B1 VH
VL: B1 VL with A32G, T94Y
B11: Pertuzumab HC x Pertuzumab (Tras.L3) Y53F LC (antibody, V domains shown)
VH: B1 VH
VL: B1 VL with A32G, Y53F
B12: Trastuzumab HC x Pertuzumab (Tras.L3) G32A LC (antibody, V domains shown)
VH: not shown
VL: B1 VL
B13: Trastuzumab HC x Pertuzumab (Tras.L3) G66R LC (antibody, V domains shown)
VH: not shown
VL: B1 VL with A32G, G66R
B14: Trastuzumab HC x Pertuzumab (Tras.L3) I31T LC (antibody, V domains shown)
VH: not shown
VL: B1 VL with I31T, A32G
B15: Trastuzumab HC x Pertuzumab (Tras.L3) I31V LC (antibody, V domains shown)
VH: not shown
VL: B1 VL with I31V, A32G
B16: Trastuzumab HC x Pertuzumab (Tras.L3) K24R LC (antibody, V domains shown)
VH: not shown
VL: B1 VL with K24R, A32G
B17: 2/99 VH20/VL15 (antibody, V domains shown)
VH: QSMQESGPGLVKPSQTLSLTCTVSGFSLSSYAMSWIRQHPGKGLEWIGYIWSGGSTDYAPSLKSRVTISVDTSKNQVSLKLSSVTAADTAVYYCARRYGTSYPDYGDANGFDPWGQGTLVTVSS
VL: DIVMTQSPDSLAVSLGERATINCKSSQSISSYLIWYQQKPGQPPKLLIYRASTLASGVPDRFSGSGSGTDFTLTISSLQAEDVAVYYCQQAYSSSNVDNTFGGGTKVEIK
B18: 2/99 VH21/VL15 (antibody, V domains shown)
VH: B17 VH with P60S, S61W, L62A
VL: B17 VL
B19: 2/99 VH22/VL15 (antibody, V domains shown)
VH: B17 VH with I36V, P60S, S61W, L62A
VL: B17 VL
B20: 2/99 VH1/VL17 (antibody, V domains shown)
VH: VQLVETGGGLIQPGGSLRLSCAASGFSLSSYAMSWVRQAPGKGLEWVGYIWSGGSTDYADSVKGRFTISRDNSKNTLYLQMNSLRAEDTAVYYCARRYGTSYPDYGDANGFDPWGQGTLVTVSS
VL: AIQLTQSPSSLSASVGDRVTITCRASQSISSYLAWYQQKPGKAPKLLIYRASTLASGVPSRFSGSGSGTDFTLTISSLQPEDFATYYCQQTYSSSNVDNTFGGGTKVEIK
B21: 2/99 VH2/VL17 (antibody, V domains shown)
VH: EVQLVETGGGLIQPGGSLRLSCAASGFSLSSYAMSWVRQAPGKGLEWVGYIWSGGSTDYADSVKGRFTISRDNSKNTLYLQMNSLRAEDTAVYYCARRYGTSYPDYGDANGFDPWGQGTLVTVSS
VL: B20 VL
B22: 2/99 VH5/VL17 (antibody, V domains shown)
VH: B20 VH with V1Q, Q2S, L3M, V4E, Q116P
VL: B20 VL
B23: 2/99 VH6/VL17 (antibody, V domains shown)
VH: B20 VH with V1Q, V47I
VL: B20 VL
B24: 2/99 VH7/VL17 (antibody, V domains shown)
VH: B20 VH with V1Q, V47I, D60S, S61W, V62A
VL: B20 VL
B25: 2/99 VH8/VL17 (antibody, V domains shown)
VH: QQLVETGGGLIQPGGSLRLSCAASGFSLSSYAMSWVRQAPGKGLEWIGYIWSGGSTDYASWAKGRFTISKTSTTLYLQMNSLRAEDTAVYYCARRYGTSYPDYGDANGFDPWGQGTLVTVSS
VL: B20 VL
B26: 2/99 VH9/VL17 (antibody, V domains shown)
VH: B20 VH with V1Q, V4L, T6S, I11V, S27T, L28F, R96K
VL: B20 VL
B27: 2/99 VH11/VL17 (antibody, V domains shown)
VH: B20 VH with V1Q, V4L, T6S, I11V
VL: B20 VL
B28: 2/99 VH12/VL17 (antibody, V domains shown)
VH: QVQLQESGPGLVKPSETLSLTCTVSGFSLSSYAMSWIRQPPGKGLEWIGYIWSGGSTDYNPSLKSRVTISVDTSKNQFSLKLSSVTAADTAVYYCARRYGTSYPDYGDANGFDPWGQGTLVTVSS
VL: B20 VL
B29: 2/99 VH13/VL17 (antibody, V domains shown)
VH: B28 VH with F78V
VL: B20 VL
B30: 2/99 VH15/VL17 (antibody, V domains shown)
VH: B17 VH with S2Q, M3L, Q15E, I36V, H39P, A59N
VL: B20 VL
B31: 2/99 VH16/VL17 (antibody, V domains shown)
VH: B17 VH with S2Q, M3L, Q15E, I36V, H39P, A59N, Q116P
VL: B20 VL
B32: 2/99 VH17/VL17 (antibody, V domains shown)
VH: B17 VH with S2Q, M3L, Q15E, I36V, H39P, A59N, V70K, Q116P
VL: B20 VL
B33: 2/99 VH18/VL17 (antibody, V domains shown)
VH: B28 VH with E16Q, P40H, N60A
VL: B20 VL
B34: 2/99 VH19/VL17 (antibody, V domains shown)
VH: B17 VH with V77F
VL: B20 VL
B35: 2/99 VH20/VL17 (antibody, V domains shown)
VH: B17 VH
VL: B20 VL
B36: 2/99 VH21/VL17 (antibody, V domains shown)
VH: B17 VH with P60S, S61W, L62A
VL: B20 VL
B37: 2/99 VH22/VL17 (antibody, V domains shown)
VH: B17 VH with I36V, P60S, S61W, L62A
VL: B20 VL

Key:
[1] = biological target: T1, Her2 ECD (amino acids 1 to 629 of matured HER2 with C-terminal avi-tag and His-tag) (human, UniProt P04626 23-652); experiment: SPR, Ab captured, Her2 analyte;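 note: ProteOn XPR36 SPR, rate constants from simultaneous fit of association and dissociation sensorgrams to a 1:1 Langmuir model, buffer-channel referenced, KD taken as koff/kon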
T1 construct: also called purified Her2

[2] = biological target: T2, human transferrin receptor (recombinant, for surface plasmon resonance) (human, UniProt P02786 89-760); experiment: SPR 25C
T2 construct: also called huTfR; human transferrin receptor-biotinylated
T2 sequence (P02786 89-760 limits assumed): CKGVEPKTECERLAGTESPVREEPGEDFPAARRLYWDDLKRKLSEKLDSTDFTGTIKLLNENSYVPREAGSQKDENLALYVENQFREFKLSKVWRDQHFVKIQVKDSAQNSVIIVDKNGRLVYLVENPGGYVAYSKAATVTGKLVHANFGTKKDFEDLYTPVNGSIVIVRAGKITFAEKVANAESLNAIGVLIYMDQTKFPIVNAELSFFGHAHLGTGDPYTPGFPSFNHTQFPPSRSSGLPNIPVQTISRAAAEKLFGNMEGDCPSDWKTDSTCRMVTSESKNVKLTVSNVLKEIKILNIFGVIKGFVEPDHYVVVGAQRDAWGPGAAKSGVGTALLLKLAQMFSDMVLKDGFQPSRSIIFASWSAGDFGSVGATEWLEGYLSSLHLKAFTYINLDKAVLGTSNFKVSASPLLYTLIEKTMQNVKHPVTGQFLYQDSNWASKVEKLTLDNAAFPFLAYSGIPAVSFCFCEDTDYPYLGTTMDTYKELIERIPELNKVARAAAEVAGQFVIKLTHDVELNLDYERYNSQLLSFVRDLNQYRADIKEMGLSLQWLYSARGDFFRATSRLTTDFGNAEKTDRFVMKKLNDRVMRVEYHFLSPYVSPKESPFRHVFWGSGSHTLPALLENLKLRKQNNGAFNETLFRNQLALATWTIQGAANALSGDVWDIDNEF

Kd [1] [nM] | koff [1] [s⁻¹] | kon [1] [M⁻¹ s⁻¹] | koff [2] [s⁻¹] | Binder
3.66 | 0.00187 | 511000 |  | B1
6.91 | 0.00247 | 358000 |  | B2
4.06 | 0.00175 | 431000 |  | B3
4.35 | 0.00192 | 440000 |  | B4
4.62 | 0.00211 | 457000 |  | B5
2.82 | 0.00097 | 344000 |  | B6
4.87 | 0.00226 | 464000 |  | B7
3.4 | 0.0018 | 530000 |  | B8
5.52 | 0.00245 | 443000 |  | B9
0.782 | 0.00063 | 805000 |  | B10
8.03 | 0.00254 | 316000 |  | B11
3.97 | 0.00268 | 675000 |  | B12
10.9 | 0.00558 | 514000 |  | B13
7.21 | 0.00341 | 473000 |  | B14
28 | 0.0116 | 413000 |  | B15
66.8 | 0.0252 | 377000 |  | B16
 |  |  | 0.00785 | B17
 |  |  | 0.00192 | B18
 |  |  | 0.00179 | B19

Kd [1] [nM] | koff [1] [s⁻¹] | kon [1] [M⁻¹ s⁻¹] | koff [2] [s⁻¹] | Binder
 |  |  | 0.00756 | B20
 |  |  | 0.00712 | B21
 |  |  | 0.00745 | B22
 |  |  | 0.00717 | B23
 |  |  | 0.00187 | B24
 |  |  | 0.00112 | B25
 |  |  | 0.00425 | B26
 |  |  | 0.00755 | B27
 |  |  | 0.00727 | B28
 |  |  | 0.00339 | B29
 |  |  | 0.00169 | B30
 |  |  | 0.00166 | B31
 |  |  | 0.000988 | B32
 |  |  | 0.0053 | B33
 |  |  | 0.001 | B34
 |  |  | 0.00457 | B35
 |  |  | 0.000997 | B36
 |  |  | 0.000938 | B37
